Patent US20260139017A1, “COMPOSITIONS AND METHODS USING REELIN IN ALZHEIMER'S DISEASE” (The General Hospital Corporation, priority 2022, published 2026)
“Also recorded” adds a separate entry of the source.

Legend:
[1] = biological target: T1, NRP1 (Homo sapiens, UniProt O14786); test: Bio-layer interferometry (BLI) of CTR-RELN-NRP-1 interactions; assay type: binding; conditions: immobilized biotinylated NRP1
T1 construct: purchased R&D 3870-N1-025
T1 sequence (O14786 22-644 isoform O14786-2 limits assumed): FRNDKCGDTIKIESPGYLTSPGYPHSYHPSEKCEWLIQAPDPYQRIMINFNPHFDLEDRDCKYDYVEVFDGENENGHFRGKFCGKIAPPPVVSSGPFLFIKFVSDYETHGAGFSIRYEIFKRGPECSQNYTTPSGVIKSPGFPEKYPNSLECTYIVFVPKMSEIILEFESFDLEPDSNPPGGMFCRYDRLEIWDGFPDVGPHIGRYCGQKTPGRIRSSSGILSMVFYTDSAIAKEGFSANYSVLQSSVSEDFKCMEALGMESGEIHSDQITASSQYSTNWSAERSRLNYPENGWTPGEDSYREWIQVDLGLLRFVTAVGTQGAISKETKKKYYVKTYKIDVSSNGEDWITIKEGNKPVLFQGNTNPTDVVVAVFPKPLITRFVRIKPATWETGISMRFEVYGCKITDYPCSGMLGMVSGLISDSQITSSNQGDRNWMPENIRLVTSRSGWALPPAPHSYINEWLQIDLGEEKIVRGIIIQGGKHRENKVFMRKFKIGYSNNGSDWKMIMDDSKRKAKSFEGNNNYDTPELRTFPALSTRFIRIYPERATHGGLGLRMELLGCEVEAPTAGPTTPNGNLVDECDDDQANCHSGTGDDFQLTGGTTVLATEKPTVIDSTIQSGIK
Protocol: (§1) Bio-layer interferometry (BLI) was additionally used to assess NRP1-protein kinetics at 30° C. and 1000 rpm agitation. 1 mg/mL NRP1 (R&D 3870-N1-025) was biotinylated at a 1:2 molar ratio, desalted, and immobilized on the SA biosensor tip (Pall ForteBio) surface. This was followed by 1) 180 seconds baseline buffer diluent, 2) loading of the ligand (NRP1), 3) 180 seconds baseline buffer diluent, 4) 240 seconds association (analyte), and 5) 300 seconds disassociation in assay buffer. Assay buffer: SD Buffer (pH7.4 PBS, 0.05% tween20, 0.01% BSA).
The experimental data were fit with the 1:1 binding model and analyzed with global fitting using Octet Data Analysis software to calculate KD.
as §1, with “was” for “was additionally”, “agitation using previously published methods.” for “agitation.”

[2] = system: SH-SY5Y cells; test: Lactate dehydrogenase assay in SH-SY5Y cells treated with oligomeric Tau; assay type: cell-based
Protocol: A lactate dehydrogenase assay was performed in SH-SY5Y cells treated 24 h with pre-formed oligomeric Tau (oTau) either alone or in the presence of C-term RELN WT (184I). The lactate dehydrogenase assay was performed as follows. 100 k neuroblastoma (SH-SY5Y, ATCC) cells/well were plated in 96-well TC treated plates in growth media (DMEM/F12, Gibco, 10% heat-inactivated FBS, R&D, 200 ug normocin) and allowed to attach and grow overnight. Next day, test compounds were allowed to thaw on wet ice. Phenol-free and serum free DMEM/F12 no serum no antibiotic media was warmed and a 50 mL aliquot was sterile filtered (0.22 um) as test media. In TC cabinet, thawed test compounds were mixed via pipetting then added to final concentration for each test condition in filtered test media and mixed through pipetting. Test conditions were allowed to pre-incubate for 15 mins at RT in TC cabinet. Wells were gently aspirated and gently washed with 200 uL prewarmed Test media, then gently aspirated and 100 μL of test conditions were added and allowed to incubate in TC incubator at 5% CO2 for 21 hrs. LDH performed using Roche kit according to manufacturer's protocol.

B1: pfcn-huIgG2-C-termH3447WT (protein)
chain: MYRMQLLSCIALSLALVTNSAPLERKSSVECPPCPAPPVAGPSVFLFPPKPKDTLMISRTPEVTCVVVDVSHEDPEVQFNWYVDGVEVHNAKTKPREEQFNSTFRVVSVLTVVHQDWLNGKEYKCKVSNKGLPAPIEKTISKTKGQPREPQVYTLPPSREEMTKNQVSLTCLVKGFYPSDIAVEWESNGQPENNYKTTPPMLDSDGSFFLYSKLTVDKSRWQQGNVFSCSVMHEALHNHYTQKSLSLSPGARTSTRKQNYMMNFSRQHGLRHFYNRRRRSLRRYP
Question: Which ka [1] does the source give for B1 here?
Answer: 9400 M⁻¹ s⁻¹

Question: What about the kd [1] of the same molecule?
Answer: 0.00573 s⁻¹

Question: And the “cytotoxicity of construct (LDH)” value [2]?
Answer: did not show any cytotoxicity

Question: And the “oligomeric Tau-induced cytotoxicity (LDH)” value ([2]; oTau with construct)?
Answer: reduction of oTau-derived cytotoxicity; also recorded: Reduced oligomeric Tau-induced cytotoxicity
